# Values quoted from earlier work as cited in publication PMC5481609.
# Molecular target: IL-23 p19 (Homo sapiens) (UniProt Q9NPF7)
# Sequence (Q9NPF7 20-189, chain 1 of 2): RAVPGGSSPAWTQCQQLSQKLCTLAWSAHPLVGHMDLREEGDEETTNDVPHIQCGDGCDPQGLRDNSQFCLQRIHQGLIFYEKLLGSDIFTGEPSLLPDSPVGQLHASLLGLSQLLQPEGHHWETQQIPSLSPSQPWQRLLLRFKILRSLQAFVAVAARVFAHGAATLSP
# Sequence (P29460 23-328, chain 2 of 2, further chain): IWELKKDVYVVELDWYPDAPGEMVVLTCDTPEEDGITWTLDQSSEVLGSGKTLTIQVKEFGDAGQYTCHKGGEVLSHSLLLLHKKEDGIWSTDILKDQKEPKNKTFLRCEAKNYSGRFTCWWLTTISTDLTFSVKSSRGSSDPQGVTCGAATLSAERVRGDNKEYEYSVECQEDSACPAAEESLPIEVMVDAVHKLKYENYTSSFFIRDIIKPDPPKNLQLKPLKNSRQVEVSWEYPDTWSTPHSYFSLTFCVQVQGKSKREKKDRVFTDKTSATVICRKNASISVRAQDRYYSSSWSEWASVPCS
substance,measurement,value
brazikumab,Kd,138 pM
